# Data from patent US7989192B2, “Modified beta-lactamase and method for its preparation” (IPSAT Therapies Oy, priority 2006, dated 2011).
# Tests used:
# Experiment in all cases: purified protein, by the assay type
# Assay type in all cases: biochemical, Bacillus cereus
# Details in all cases: other: 10 mM phosphate buffer, pH 7.0, 30° C, Hanes plot, mean of three independent measurements
# [1] = tested on: C[C@@H](O)[C@H]1C(=O)N2C(C(=O)O)=C(S[C@@H]3CN[C@H](C(=O)N(C)C)C3)[C@H](C)[C@H]12
# Procedure: (§1) The enzyme kinetic parameters kcat and Km were determined from initial rates by Hanes plot. The reactions were performed in 10 mM phosphate buffer, pH 7.0 at 30° C. The reaction cuvette (one mL) contained about 5 pmol of enzyme in all reactions except 1.7 pmol of enzyme in the meropenem assay. The hydrolysis of various beta-lactam substrates was spectrophometrically recorded at a wavelength specific for each substrate.
# (§2) Values for different kinetic parameters (kcat, Km and kcat/Km) that represent mean values obtained from three independent measurements are reported in Table 6.
# [2] = tested on: CO/N=C(\C(=O)N[C@@H]1C(=O)N2C(C(=O)O)=C(CSc3nc(=O)c(=O)[nH]n3C)CS[C@H]12)c1csc(N)n1
# Procedure: as §1, §2
# [3] = tested on: CC1(C)S[C@@H]2[C@H](NC(=O)[C@H](N)c3ccc(O)cc3)C(=O)N2[C@H]1C(=O)O
# Procedure: as §1, §2
# [4] = tested on: CCN1CCN(C(=O)N[C@@H](C(=O)N[C@@H]2C(=O)N3[C@@H]2SC(C)(C)[C@@H]3C(=O)O)c2ccccc2)C(=O)C1=O
# Procedure: as §1, §2
# [5] = tested on: CO/N=C(\C(=O)N[C@@H]1C(=O)N2C(C(=O)O)=C(COC(C)=O)CS[C@H]12)c1csc(N)n1
# Procedure: as §1, §2
# [6] = tested on: CC1(C)S[C@@H]2[C@H](NC(=O)[C@H](N)c3ccccc3)C(=O)N2[C@H]1C(=O)O
# Procedure: as §1, §2
# [7] = tested on: CO/N=C(\C(=O)N[C@@H]1C(=O)N2C(C(=O)O)=C(COC(N)=O)CS[C@H]12)c1ccco1
# Procedure: as §1, §2
substance,measurement,setting,value
P2A metallo-beta-lactamase (Bacillus cereus),Km,[1],410 µM
same,Km,[2],68 µM
same,Km,[3],716 µM
same,Km,[4],372 µM
same,Km,[5],66 µM
same,Km,[6],942 µM
same,Km,[7],27 µM
